Test results from paper PMC3817407.

What was measured:
ECF02_915 = biological target: T1, ECF02_915
T1 chain: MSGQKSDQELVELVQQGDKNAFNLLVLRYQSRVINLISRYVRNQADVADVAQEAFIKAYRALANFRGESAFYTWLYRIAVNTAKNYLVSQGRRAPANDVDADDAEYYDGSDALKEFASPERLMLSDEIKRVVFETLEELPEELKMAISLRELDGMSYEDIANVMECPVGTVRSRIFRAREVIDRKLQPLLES

ECF04_1609 = biological target: T2, ECF04_1609
T2 chain: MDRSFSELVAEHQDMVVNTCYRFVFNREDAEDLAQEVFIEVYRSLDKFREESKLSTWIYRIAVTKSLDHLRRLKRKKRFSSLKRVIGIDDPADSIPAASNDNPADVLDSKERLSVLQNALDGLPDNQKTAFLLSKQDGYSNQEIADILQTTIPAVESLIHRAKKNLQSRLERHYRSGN

ECF11_3726 = biological target: T3, ECF11_3726
T3 chain: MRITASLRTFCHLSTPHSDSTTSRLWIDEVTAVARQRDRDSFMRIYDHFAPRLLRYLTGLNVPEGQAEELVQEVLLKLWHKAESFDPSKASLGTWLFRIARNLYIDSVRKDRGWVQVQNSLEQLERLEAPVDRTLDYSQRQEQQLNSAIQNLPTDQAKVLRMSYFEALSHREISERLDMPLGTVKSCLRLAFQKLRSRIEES

ECF12_807 = biological target: T4, ECF12_807
T4 chain: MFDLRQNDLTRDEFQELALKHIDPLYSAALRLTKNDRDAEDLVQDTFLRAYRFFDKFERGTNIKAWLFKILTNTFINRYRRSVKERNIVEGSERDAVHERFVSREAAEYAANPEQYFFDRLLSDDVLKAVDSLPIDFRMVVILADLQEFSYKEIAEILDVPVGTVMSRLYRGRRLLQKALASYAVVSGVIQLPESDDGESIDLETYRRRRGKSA

ECF22_4450 = biological target: T5, ECF22_4450
T5 chain: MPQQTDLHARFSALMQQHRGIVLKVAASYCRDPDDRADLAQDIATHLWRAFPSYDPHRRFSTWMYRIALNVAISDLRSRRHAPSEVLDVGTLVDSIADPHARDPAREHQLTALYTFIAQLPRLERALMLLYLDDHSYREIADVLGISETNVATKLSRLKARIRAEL

ECF35_3582 = biological target: T6, ECF35_3582
T6 chain: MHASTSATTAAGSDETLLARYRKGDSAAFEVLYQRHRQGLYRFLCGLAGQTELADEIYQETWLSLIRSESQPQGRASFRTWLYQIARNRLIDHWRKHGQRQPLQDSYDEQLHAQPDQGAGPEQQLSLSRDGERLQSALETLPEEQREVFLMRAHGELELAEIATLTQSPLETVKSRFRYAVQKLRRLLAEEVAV

B1: AS33_423 (protein)
chain: MMAMSNTMPDPREPGDVEALLPWYAAGTLNARDARRVADALDRDPALARQYAVILEEYASTIELNESLGAPSSRAMQKLFAAIDAEPARAPGAGQGLGARFAGFFAGLSPKALAWSASVAGLALLLQAGLIGALLTWPHAAPVQTAAYQPQREVARAPASSPAPATVSPPAAAMADRAADAGKSTPPMVMAERSGGPVVRSLAPQSGPRVLVKFAPEARASEIAALLDQYNAVVVDSSRGGLFRLQFGTQSLSKQDQETLIGRLQKEPVVSVVLSAP
fold repression (ECF02_915): 4.97
fold repression (ECF04_1609): 6.18
fold repression (ECF11_3726): 29.3
fold repression (ECF12_807): 6.47
fold repression (ECF22_4450): 23.1
fold repression (ECF35_3582): 6.37

B2: AS27_4265 (protein)
chain: MTGHPDVAEIADLAEGLLPTTRTTEVRQHLESCELCADVYASLTEIQGLLGTLPAPAPMPDDVAARIDAALAAEPPLGIADGTRVSRETSTPADRPAGHARPSSTGPGRKDRRRGGRRRIAVLGAVAAAAAIGIGSVVVSSLTEDSSSGNTAREQQTAIADTFSEGRLKDRVTNLVADGSAENGSRTPRSFGMESENGGETAENHVFKQPTVPECIRKGIGRDDAVIATEPGVYKGREALLVVLPDATNDTQVTAYIVETACVDQPAVGKAKILLEHSYARS
fold repression (ECF02_915): 2.41
fold repression (ECF04_1609): 2.44
fold repression (ECF11_3726): 7.03
fold repression (ECF12_807): 8.59
fold repression (ECF22_4450): 4.03
fold repression (ECF35_3582): 1.97

B3: AS25_1645 (protein)
chain: MNESFSQRQTDGDRRRGGDLEMKKNHTSHQHHTDSETPMGHNFEQFQRLSAYFDGEATPAERKEIQHLLDTDPQVKQQYQQLRQLKQALQLLPIPTSISAQYLGQRVLARLRRSQLRTLSLWGSGAIAALFVAGVMGQMPRLNFDRFAKNDPDQQPTAALVETSPQGEEALVVALNRPVLQIPKLATTESP
fold repression (ECF02_915): 6.91
fold repression (ECF04_1609): 6.4
fold repression (ECF11_3726): 13.1
fold repression (ECF12_807): 9.09
fold repression (ECF22_4450): 9.86
fold repression (ECF35_3582): 2.98

B4: AS35_3582 (protein)
chain: MNPQKHSASVAEEQMLAHFRAHAPQQPAPALDQAILAAARRQAAHVEPARSWWRRWLEASRRPRWQAAFASLLGVALVLGLVSHNVLDDAERQARPEVAFSDVPLRDGVAGAAAAKRAMRAPAAPAPLSGEMSEPPALLASYASSGEAPQLMAEAAPPAPAALADRPPAQAAQQAKVQAALAGDFVAQARGKAVAVKPEVLDEALGAVLALREQGKTEQAATQLAELQKRFPGENLVERLERLATIAASARKRP
fold repression (ECF02_915): 3.95
fold repression (ECF04_1609): 6.84
fold repression (ECF11_3726): 18.8
fold repression (ECF12_807): 10.1
fold repression (ECF22_4450): 8.03
fold repression (ECF35_3582): 311

B5: AS33_375 (protein)
chain: MMALSKKMLEQEPSEIELLLPWHAAGTLNARDARRVEDALARDPELAKQYAAIRGEYEETIHLNESLGAPSARAMQKLFGAIDAEPARETGSLPLSARIATFFASLSPRTLAWSASLGAVALVLQAGIIGAVLMKTQPTTFQTASLSTSAPITRELGAAVAPARALVRFTPEARVADITALLDSYQASIIGDAKGGMFRLQFDKAMSQDELASLLGRMQREKFVNLAVAAP
fold repression (ECF02_915): 4.71
fold repression (ECF04_1609): 11.1
fold repression (ECF11_3726): 34.4
fold repression (ECF12_807): 7.97
fold repression (ECF22_4450): 31
fold repression (ECF35_3582): 5.86

B6: AS31_34 (protein)
chain: MNKEKLSDHLKSEWKKIDQTANPSIPNQKELLHQLSQMKAEYRKKLLQEIILFVFCALMVVSAAILAFTQAPAVFIVLQVCVLAVLPILIAAEKKRHLGECEVKRG
fold repression (ECF02_915): 1.32
fold repression (ECF04_1609): 2.79
fold repression (ECF11_3726): 5.86
fold repression (ECF12_807): 3.66
fold repression (ECF22_4450): 3.59
fold repression (ECF35_3582): 2.06

B7: AS37_2513 (protein)
chain: MSSAPATKEEVDFALKVRRALDERAASLPDATTDRLAAARRAALARKKPDAAIVLVPALAGSAGTLELRPPGEPRKSLARRLARAWPLALLLAGLIGIAYWEDMQRTAELADIDAAMLSDNLPLTAYLDHGFNAYLSHTH
fold repression (ECF02_915): 2.67
fold repression (ECF04_1609): 4.3
fold repression (ECF11_3726): 11.6
fold repression (ECF12_807): 9.33
fold repression (ECF22_4450): 7.22
fold repression (ECF35_3582): 2.62

B8: AS30_35 (protein)
chain: MDKRLQQLREEYKNVQIPKELDIIVEKALQQEPKKKRIVMWPTSAAIAAAILFTALVNINPDAAQAMSKIPVIGKIVKAITFIEIKEEKDQSSIDVKTPALSGLSNKELENSINEKYLKESQQLYKEFIQSTSKNKKGHLSIYSDYETVTDTPDLLSIRRNIETTQASSYTQSRYITIDKKNDILLTLKSLFKDERYIKVISQNIKEQMKQQMKEDPNKIYWLTDEDAEPFKTILPDQTFYITEDHKLVISFDEYEVAPGYMGVTEFTIPTGVISNLLVGERYIR
fold repression (ECF02_915): 2.15
fold repression (ECF04_1609): 2.43
fold repression (ECF11_3726): 2.09
fold repression (ECF12_807): 3.12
fold repression (ECF22_4450): 2.21
fold repression (ECF35_3582): 6.57

B9: AS38_1322 (protein)
chain: MSDGNDARPDARDGHDPGSDARDGHDPGSHARDGHDPGAGPFDGHGPGSDAGDGDDAGPDARDGHGAPAGPAGREQRKHPHDTHDMHDTHDTHAGKGTVNHGPAAQGPDAPGADGPATDEAALRAMMQRAVREMEPSDGTLEHLRRAVPARRARKRQALVGAAAAALFLGTAVPALVHVSNATGAGADPSVAGNASQAQGGASQGKDPAGGQSGVAGTGDTPEDRDKADPKETPGGKEPGAATGAPPSGVPSASSPADVPACAPGSLGPAVASSAEPDSTGVVYGSFRVTNVSSDGCTVTGPGTVVTASLGAAEATRIGTARHAAGDAAAGLPDPSLETASLALAPGAAYEVQFAWVPSETCPTTGGTTGGGSGGPSPDPSPTADTTAAGGTSAGGGEAGPTTQLITEDGPAEGSVSVTYTPEGGSGSATATVSNACAGTVYWTGLLADSGSGA
fold repression (ECF02_915): 3.62
fold repression (ECF04_1609): 4.63
fold repression (ECF11_3726): 11.2
fold repression (ECF12_807): 5.77
fold repression (ECF22_4450): 6.3
fold repression (ECF35_3582): 2.8

B10: AS27_1331 (protein)
chain: MSAADKDPDKHSADADPPLTVELLADLQAGLLDDATAARIRSRVRSDPQAQQILRALNRVRRDVAAMGADPAWGPAARPAVVDSISAALRSARPNSSPGAAHAARPHVHPVRMIAGAAGLCAVATAIGVGAVVDAPPPAPSAPTTAQHITVSKPAPVIPLSRPQVLDLLHHTPDYGPPGGPLGDPSRRTSCLSGLGYPASTPVLGAQPIDIDARPAVLLVIPADTPDKLAVFAVAPHCSAADTGLLASTVVPRA
fold repression (ECF02_915): 2.72
fold repression (ECF04_1609): 5.65
fold repression (ECF11_3726): 5.02
fold repression (ECF12_807): 2.07
fold repression (ECF22_4450): 5.86
fold repression (ECF35_3582): 5.79
